A protein production outcome set (Wang et al. 2014)

Test: label from the status in PepcDB records

MLPHYKQQAVIDSGLAAVGFRPENQRIYPNGSLAAHILGAVDIDNFGIAGIEKWIDANWLADLRGAGLALKGRDLQPVELSIDLRVQYAMEQELGKAVKKFGAAAGAGLLLDVTNGEILALASYPAFDPNNPVDAFKPDRINRVTAGVFEMGSTFKALTTAMALESGRFDLESVVDASRPLSFGRQRIHDYRGKYRPLTVPEAFIHSSNIVMAKMAMTLGPEALRTFLGRFGVLSQLATELPESAAPLRPSSWSEVTTATVSFGHGIAVTPLQASMAVAALANGGRLIRPTFIKDSPVSERTIAESLLSANTSEAIRHLLRLNAAVGSATKADVPGYVIGGKTGTAEKVVQGRYSKVLNVTSFMGIVPADNPRYLLLTLLDEPRGLAETYGNRTSGWNAVPLGGALLHRILPMLLKPVFPSPSSAEAVPVATGEPSVDDSSSD
protein production: failed

MLPIAPCARQAVHRQCGGMQNSAAARKLHAVLPRTLDTARIARRSSMFLRRNGLSLCLLALTIFFIGCQVYAGLHAYNDELREQGQPTLLLSAYLHSPHFMSALFENWESEFLQMGMYVLLTVKLRQVGSAESRPLDPTEETVEIKSGPTPWPVRAGGVWRRLYDHSLAIAFAALFLMSFALHLVGSWRLEVTERAQKGLPPITVLEHFTSASFWFESMQNWQSEFLAVFSLVVLTIWLRQKDSPQSKPVEAPHSQTGG
protein production: failed

MLPIWFLIVIILKSVEFVITSFFLRDISKEMIFFSDLLGRIIVIIFYVLPIATYISVMFSQFLYLFIIHIFLYIICFMAFVSSALRIKRCIH
protein production: failed

MLPVSTSVQRSTRQQKITYLYNRNEQSNKKAVTMKTTTTETSIPEEKTTSARIQAYSKSQLAALYLPHIQPASARRTLRSWIAKNTELQAALARSGYTGKAILLTPAQVGLFFRFLGEP
protein production: failed

MLPWNFEGEASEPAQDPTMAPHKRQSYEEELANAITHGVGLVLSLIGWVGLLVLSGLAGGGWDLAASAVFGGTLVFLYATSTLYHSVGTARLKRTLRILDHVAIFLLIAGTYTPFAGVLMREGWGWSVLALVWGIALAGLLFKLFSTHRFHPAATTLYLLMGWLGVLFADPMSAALPLGGLLLIVAGGLAYTIGVLFYGWHSLRYSHAIWHVFVLVGSACHYAAVVLYVL
protein production: failed

MLQIADYIAENYRGKVVEVGIGRFTAVAELLARRGFEVFATDVVERRAPEGCRFYVDDVTKPNLKIYEGASLIYSLRPPPELFSAIVEVSRKVGADCLIKPLYGDYMEARIVNYKGAQFYLIRRENYD
protein production: failed

MLQPGGTPTKIVCLTQVVTADDLRDDAEYADIMEDMSQEGGKFGNLVNVVIPRPNPDHDPTPGVGKVFLEYADVDGSSKARSGMNGRKFGGNQVVAVYYPEDKYAQGDYED
protein production: failed

MLQRFYETLSTLRARWTRFTESPMGAWVRTGLRWLFVGGIVAYLAYELTTIGWGEVARALPVTPWFYVLLLLMYGTLPLTEAVLYGTAWGAQYRDLLPVLFRKRVLNNDVLGYSGEAYFYLWARRETNLGTGTVLRTVKDNVVISSVASTSVAFGLLAVFFLTGQIELLRQYLPSEAYTLGAGVAVLIILVSAVVAFRRSILSLPSSLLGLFAAGHVARFVLNNGLQVTQWAVVIPEVSAGTWITLLALYIVIQQVPFVPSRGLVFMSAGVGLSGPLQIPEAPLASMLLAQSLLDRGLNFLVYTGTTAAEAVGDDVEELDDLSIPEEMG
protein production: failed

MLREPGAADRAAFVELLASPEVHTYLGGPRPRAELERELPGTPERWPGSFVVDLDGEMIGQVLLRRTREHCCPVAVGKVDLGYLFLPRAWGLGYAAEACAAALDWLDCVLPGEPVVLNTQTANTGSMRLAAKLGFTEVERFRAWDAEQWLGLRPPLT
protein production: failed

MLRFMVRSFASLAISSAYSIPIGLSSVTSILDEDTIIERVCYGYLKCNATCSTEIVIVNYSITLNMSDDVVVKLLNDGYFSLDAGAYFGVVPKAIWSRKFQEIDNTVRLATNVLYITESDGTSILVDSGIGNKFDDKFRKIYRVEKQSDIYEYIRLHGDPNSVRMIINSHLHFDHVGHNADFKNAYAYAQADEFKAARYRNYITKANYRLSASQIKNKVEIGGSKRINGFIRVIKTDGHTPGHQVILINAGGRKIMYFGDIVPSTFHLKLPYRTAIDLDPLKTIEFKKNLVKMAIRENYICIFNHDVETPAAILSGDYSDPKYVKVDI
protein production: failed

MLRIIVIGTTGSGKTTFARALAQRLGLPHGEQDAWNHEANWQMAPLGRFRARVDTFTSQPAWVMDGNYGKARDLGWARADTLIWLDFPAWLVYSRLVRRTLWRVLTQQELWNGNRETWRGALLDPEGPLRWFWKTHWRRRQETPALAAEFPHLRLVRLRSPGEARRFLAAVGRGHPTALEHHHHHH
protein production: failed

MLRLDTRFLPGFPEALSRHGPLLEEARRRLLAKRGEPGSMLGWMDLPEDTETLREVRRYREANPWVEDFVLIGIGGSALGPKALEAAFNESGVRFHYLDHVEPEPILRLLRTLDPRKTLVNAVSKSGSTAETLAGLAVFLKWLKAHLGEDWRRHLVVTTDPKEGPLRAFAEREGLKAFAIPKEVGGRFSALSPVGLLPLAFAGADLDALLMGARKANETALAPLEESLPLKTALLLHLHRHLPVHVFMVYSERLSHLPSWFVQLHDESLGKVDRQGQRVGTTAVPALGPKDQHAQVQLFREGPLDKLLALVIPEAPLEDVEIPEVEGLEAASYLFGKTLFQLLKAEAEATYEALAEAGQRVYALFLPEVSPYAVGWLMQHLMWQTAFLGELWEVNAFDQPGVELGKVLTRKRLAG
protein production: not failed

MLRPAGLWRLCRRPWAARVPAENLGRREVTSGVSPRGSTSPRTLNIFDRDLKRKQKNWAARQPEPTKFDYLKEEVGSRIADRVYDIPRNFPLALDLGCGRGYIAQYLNKETIGKFFQAAIAENALKNSSETEIPTVSVLADEEFLPFKENTFDLVVSSLSLHWVNDLPRALEQIHYILKPDGVFIGAMFGGDTLYELRCSLQLAETEREGGFSPHISPFTAVNDLGHLLGRAGFNTLTVDTDEIQVNYPGMFELMEDLQGMGESNCAWNRKALLHRDTMLAAAAVYREMYRNEDGSVPATYQIYYMIGWKYHESQARPAERGSATVSFGELGKINNLMPPGKKSQ
protein production: failed

MLRQGAKHTACTGRRNDDDRTPKEQSMKIVVIGGTGLIGSNVVNRLRRDGHETVAASPGTGVNTITGEGLAQALDGAQVVVDVANSPSFEDQAVMAFFETSGRTLLAAEAAAGVTHHLALSVVGTDRLADSGYFRAKVAQEALIKASKVPYTILRATQFFEFIESIVNAGADGDTVRLSPALIQPIAADDVSAALADLAVGMPLNGTVEVAGPDRLPLDELARKFLAARGDRRQVVADVHARYFGSELDDRSLVAGDNPRVGSTRLMNWLSRSPAPQ
protein production: failed

MLRQSMNDYFEQPWYLTYADAERLSDLRDETLTLRDEEVTGHVPTEVEYEELQQVNDELAQRIGDMLKVHKEQGAAIDLALVLRDYLASHPRTHHFDLARMVVDQAVRLGYSESDYRAIQPDWTAINDFGAKVQANVIDRYLEHHHHHH
protein production: not failed

MLRSVYEMTKISKIIDELNNQQADAAWITTPLNVYYFTGYRSEPHERLFALLIKKDGKQVLFCPKMEVEEVKASPFTGEIVGYLDTENPFSLYPQTINKLLIESEHLTVARQKQLISGFNVNSFGDVDLTIKQLR
protein production: not failed

MLSAVRRANLYLNLFGFSKVPLIWLCHPKIIAIDSKHVEVRIPLRRRTKNHLNSMYFGALAVGADVAGGFLAMSKAQEKGEAISLAFKGVKAEFLKRPEADVHFVCNDGHVIDEMLDHTIATGERVNRDVKIIALCPSLHGQEPMAEFALTLSIKKAAQHTKLEHHHHHH
protein production: not failed

MLSERRLKVLRAIVQDYVGTEEPVGSKALTERHNLGVSPATVRNDMAALEDEGFIAQPHTSAGRIPTDKGYRLFVDKLAGVKPMTAPERRAIQNFLEGAVDLDDVVARTVRLLAQLTRQVAVVQYPSLTRSTVRHVELLSLAPARLMLVLITDTGRVEQRMVDCPAPFGEASLADLRARLNSRVAGRRFADVPALVEDLAEPFEAEDRGTVSTVLSTLLETLVEENEERLMIGGTANLTRFGHDFPLVIRPVLEALEEQVVLLKLLGEAKDPGVTVRIGHENAHEGLNSTSVVSVGYGSGGEAVAKLGVVGPTRMDYPGTMGAVRAVARYVGQILAES
protein production: failed
